Target: the molecule itself
Test: SEC; analytical gel filtration, Superdex 200 (1.0 x 30 cm), 20 mM potassium phosphate pH 6.0, 150 mM KCl, 1 mM EDTA; initial protein concentration 20 uM, 0.2 ml loaded, 0.5 ml/min; apparent molar mass from a calibration curve

B1: Bacillus subtilis nucleoside diphosphate kinase (enzyme, UniProt P31103 1-149, looked up)
chain: MMEKTFIMVKPDGVQRQLIGDILSRFERKGLQLAGAKLMRVTEQMAEKHYAEHQGKPFFGELVEFITSGPVFAMVWEGENVIEVTRQLIGKTNPKEALPGTIRGDYGMFVGKNIIHGSDSLESAEREINIFFKNEELVSYQQLMAGWIY
notes: nucleoside diphosphate kinase, Bacillus subtilis; construct not described; also called B. subtilis NDK; extant mesophilic NDK
stoichiometry N: 6

Reference: publication PMC5775292, “Comprehensive reduction of amino acid set in a protein suggests the importance of prebiotic amino acids for stable proteins” (Scientific Reports, 2018)
